From PMC5031558, “SPATA2 Links CYLD to LUBAC, Activates CYLD, and Controls LUBAC Signaling” (Molecular Cell, 2016)
Where a chain is given by its changes, count along the chain named. In names and notes the source's numbering stands.

T1: HOIP PUB domain (aa 1–184) (UniProt Q96EP0 1-184)
T1 construct: HOIP (RNF31), PUB domain, residues 1-184; The construct used in the pull-down, NMR and FP experiments is called only 'HOIP PUB domain'; also called HOIP PUB domain (1–184); source: E. coli, purified (as described in Elliott et al., 2014)
T1 sequence (looked up): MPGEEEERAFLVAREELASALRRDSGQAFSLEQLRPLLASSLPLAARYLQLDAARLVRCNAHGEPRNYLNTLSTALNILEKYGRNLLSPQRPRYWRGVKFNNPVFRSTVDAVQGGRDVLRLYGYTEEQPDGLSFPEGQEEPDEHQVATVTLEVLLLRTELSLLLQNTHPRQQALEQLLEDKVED

T2: HOIP PUB domain (HOIP 5–180, crystal structure) (UniProt Q96EP0 5-180)
T2 construct: 5–180 may be the modelled residues of the 1–184 construct; source: E. coli, purified (as described in Elliott et al., 2014)
T2 sequence (looked up): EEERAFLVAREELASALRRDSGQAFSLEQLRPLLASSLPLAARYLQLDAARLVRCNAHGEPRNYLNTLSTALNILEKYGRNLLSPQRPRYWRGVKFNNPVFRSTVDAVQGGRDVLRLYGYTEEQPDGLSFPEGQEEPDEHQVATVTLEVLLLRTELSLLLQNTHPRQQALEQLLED

B1: SPATA2 (aa 7–356) (domain or fragment, UniProt Q9UM82 7-356, looked up)
chain: MDTKFKDDLFRKYVQFHESKVDTTTSRQRPGSDECLRVAASTLLSLHKVDPFYRFRLIQFYEVVESSLRSLSSSSLRALHGAFSMLETVGINLFLYPWKKEFRSIKTYTGPFVYYVKSTLLEEDIRAILSCMGYTPELGTAYKLRELVETLQVKMVSFELFLAKVECEQMLEIHSQVKDKGYSELDIVSERKSSAEDVRGCSDALRRRAEGREHLTASMSRVALQKSASERAAKDYYKPRVTKPSRSVDAYDSYWESRKPPLKASLSLRKEPVATDVGDDLKDEIIRPSPSLLTMASSPHGSPDVLPPASPSNGPALLRGTYFSTQDDVDLYTDSEPRATYRRQDALRPD
notes: also called extended SPATA2 fragment; source: E. coli, purified (as described in Elliott et al., 2014)
B2: CYLD USP domain (aa 583–956) (domain or fragment, human, UniProt Q9NQC7 583-956, looked up)
chain: GLEIMIGKKKGIQGHYNSCYLDSTLFCLFAFSSVLDTVLLRPKEKNDVEYYSETQELLRTEIVNPLRIYGYVCATKIMKLRKILEKVEAASGFTSEEKDPEEFLNILFHHILRVEPLLKIRSAGQKVQDCYFYQIFMEKNEKVGVPTIQQLLEWSFINSNLKFAEAPSCLIIQMPRFGKDFKLFKKIFPSLELNITDLLEDTPRQCRICGGLAMYECRECYDDPDISAGKIKQFCKTCNTQVHLHPKRLNHKYNPVSLPKDLPDWDWRHGCIPCQNMELFAVLCIETSHYVAFVKYGKDDSAWLFFDSMADRDGGQNGFNIPQVTPCPEVGEYLKMSLEDLHSLDSRRIQGCARRLLCDAYMCMYQSPTMSLYK
notes: Dimer by SEC-MALS (86 kDa); also called intact CYLD USP domain; source: Sf9 insect cells, purified (as described in Komander et al., 2008)
B3: SPATA2 PUB domain (aa 1–241) (domain or fragment, UniProt Q9UM82 1-241, looked up)
chain: MGKPSSMDTKFKDDLFRKYVQFHESKVDTTTSRQRPGSDECLRVAASTLLSLHKVDPFYRFRLIQFYEVVESSLRSLSSSSLRALHGAFSMLETVGINLFLYPWKKEFRSIKTYTGPFVYYVKSTLLEEDIRAILSCMGYTPELGTAYKLRELVETLQVKMVSFELFLAKVECEQMLEIHSQVKDKGYSELDIVSERKSSAEDVRGCSDALRRRAEGREHLTASMSRVALQKSASERAAKD
notes: Spermatogenesis-associated protein 2 (SPATA2), PUB domain, residues 1-241, 27.6 kDa as printed; Monomer by SEC-MALS; also called SPATA2 PUB domain (1–241); source: E. coli, purified (as described in Elliott et al., 2014)
B4: CYLD USP domain I790D (domain or fragment, human)
chain: B2 chain with I208D
notes: CYLD, human, USP domain with I790D, 44 kDa observed; Monomer by SEC-MALS; Limits of the mutant are not restated; parent is m1; also called CYLD I790D; I790D dimerization mutant; source: Sf9 insect cells, purified (as described in Komander et al., 2008)
B5: SPATA2 PIM peptide (aa 334–344) (peptide, UniProt Q9UM82 334-344, looked up)
peptide: DVDLYTDSEPR
notes: SPATA2, peptide spanning the PIM (Asp-Leu-Tyr-Thr, residues 336-339), residues 334-344; also called SPATA2 334–344
B6: CYLD B-box domain (aa 778–855) (domain or fragment, human, UniProt Q9NQC7 778-855, looked up)
chain: TDLLEDTPRQCRICGGLAMYECRECYDDPDISAGKIKQFCKTCNTQVHLHPKRLNHKYNPVSLPKDLPDWDWRHGCIP
modifications: 15N-labelled in the NMR titration
notes: CYLD, human, B-box domain, residues 778-855, 9.1 kDa as printed; Dimer by SEC-MALS (17.1 kDa); also called isolated B-box domain

Assays:
[1] = biological target: T1, HOIP PUB domain (aa 1–184); experiment: SEC-MALS; Superdex 200 column; purified SPATA2 (aa 7–356), HOIP PUB (aa 1–184) and CYLD alone and mixed; conditions: both partners purified
[2] = biological target: B3; experiment: cell-based or functional assay
[3] = biological target: B3; experiment: SEC-MALS; Superdex 75 size-exclusion column; CYLD and SPATA2 PUB variants alone and mixed; conditions: both partners purified
[4] = biological target: the molecule itself; experiment: as above
[5] = biological target: B1; experiment: SEC-MALS; Superdex 200 column; purified SPATA2 (aa 7–356), HOIP PUB (aa 1–184) and CYLD alone and mixed; conditions: both partners purified
[6] = biological target: B2; experiment: SPR; fraction of CYLD variant bound to SPATA2 PUB against varying CYLD concentrations; kinetic and equilibrium fits; conditions: both partners purified
[7] = biological target: B4; experiment: as above; conditions: both partners purified
[8] = biological target: T2, HOIP PUB domain (HOIP 5–180, crystal …); experiment: crystal structure; HOIP PUB domain with SPATA2 PIM peptide (aa 334–344), 2.7 Å, space group P43, two complexes in the asymmetric unit; conditions: both partners purified

B1
stoichiometry N [1]: 1 SPATA2 per HOIP PUB (1:1)

B2
kcat/KM of CYLD for fluorescent Met1/Lys63-linked diUb substrates, with against without SPATA2 [2]: ~2 fold
stoichiometry N [3]: 1 CYLD USP per SPATA2 PUB (2:2)
stoichiometry N [4]: 2
stoichiometry N [5]: 1 CYLD per SPATA2 (2:2:2 with HOIP PUB)

B3
Kd [6]: 96 nM
Kd [7]: 518 nM

B4
stoichiometry N [3]: 1 CYLD USP I790D per SPATA2 PUB (1:1)

B5
binding result [8]: binds

B6
stoichiometry N [4]: 2
